Reference: publication PMC11574045, “A cofactor-induced repressive type of transcription factor condensation can be induced by synthetic peptides to suppress tumorigenesis” (The EMBO Journal, 2024)

Tested on: HEK293FT cells transfected with TF library
Experiment: Screening of TF condensates based on fluorescent puncta
Assay type: cell-based
Details: Figure 1B numerical data; TF library screen, one value per transcriptional factor
Outline: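 Each TF construct was introduced into HEK293FT cells using PEI at 4.8 μg/ml; glucose deprivation versus normal medium lasted 12 h. Automated confocal-style imaging of tagged TF staining, 50 fields per well, gave the puncta data.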

Molecule	Z score of condensed fraction
NEUROD (protein, UniProt Q13562 1-356, looked up) Neurogenic differentiation …: MTKSYSESGLMGEPQPQGPPSWTDECLSSQDEEHEADKKEDDLETMNAEEDSLRNGGEEEDEDEDLEEEEEEEEEDDDQKPKRRGPKKKKMTKARLERFKLRRMKANARERNRMHGLNAALDNLRKVVPCYSKTQKLSKIETLRLAKNYIWALSEILRSGKSPDLVSFVQTLCKGLSQPTTNLVAGCLQLNPRTFLPEQNQDMPPHLPTASASFPVHPYSYQSPGLPSPPYGTMDSSHVFHVKPPPHAYSAALEPFFESPLTDCTSPSFDGPLSPPLSINGNFSFKHEPSAEFEKNYAFTMHYPAATLAGAQSHGSIFSGTAAPRCEIPIDNIMSFDSHSHHERVMSAQLNAIFHD	0.06185
MLXIP (protein, UniProt Q9HAP2 2-919, looked up) MLX-interacting protein: AADVFMCSPRRPRSRGRQVLLKPQVSEDDDDSDTDEPSPPPASGAATPARAHASAAPPPPRAGPGREEPPRRQQIIHSGHFMVSSPHREHPPKKGYDFDTVNKQTCQTYSFGKTSSCHLSIDASLTKLFECMTLAYSGKLVSPKWKNFKGLKLQWRDKIRLNNAIWRAWYMQYLEKRKNPVCHFVTPLDGSVDVDEHRRPEAITTEGKYWKSRIEIVIREYHKWRTYFKKRLQQHKDEDLSSLVQDDDMLYWHKHGDGWKTPVPMEEDPLLDTDMLMSEFSDTLFSTLSSHQPVAWPNPREIAHLGNADMIQPGLIPLQPNLDFMDTFEPFQDLFSSSRSIFGSMLPASASAPVPDPNNPPAQESILPTTALPTVSLPDSLIAPPTAPSLAHMDEQGCEHTSRTEDPFIQPTDFGPSEPPLSVPQPFLPVFTMPLLSPSPAPPPISPVLPLVPPPATALNPPAPPTFHQPQKFAGVNKAPSVITHTASATLTHDAPATTFSQSQGLVITTHHPAPSAAPCGLALSPVTRPPQPRLTFVHPKPVSLTGGRPKQPHKIVPAPKPEPVSLVLKNARIAPAAFSGQPQAVIMTSGPLKREGMLASTVSQSNVVIAPAAIARAPGVPEFHSSILVTDLGHGTSSPPAPVSRLFPSTAQDPLGKGEQVPLHGGSPQVTVTGPSRDCPNSGQASPCASEQSPSPQSPQNNCSGKSDPKNVAALKNRQMKHISAEQKRRFNIKMCFDMLNSLISNNSKLTSHAITLQKTVEYITKLQQERGQMQEEARRLREEIEELNATIISCQQLLPATGVPVTRRQFDHMKDMFDEYVKTRTLQNWKFWIFSIIIKPLFESFKGMVSTSSLEELHRTALSWLDQHCSLPILRPMVLSTLRQLSTSTSILTDPAQLPEQASKAVTRIGKRLGES	-0.5131
MLR2 (protein, UniProt Q96JN0 1-433, looked up) Ligand-dependent corepressor: MQRMIQQFAAEYTSKNSSTQDPSQPNSTKNQSLPKASPVTTSPTAATTQNPVLSKLLMADQDSPLDLTVRKSQSEPSEQDGVLDLSTKKSPCAGSTSLSHSPGCSSTQGNGRPGRPSQYRPDGLRSGDGVPPRSLQDGTREGFGHSTSLKVPLARSLQISEELLSRNQLSTAASLGPSGLQNHGQHLILSREASWAKPHYEFNLSRMKFRGNGALSNISDLPFLAENSAFPKMALQAKQDGKKDVSHSSPVDLKIPQVRGMDLSWESRTGDQYSYSSLVMGSQTESALSKKLRAILPKQSRKSMLDAGPDSWGSDAEQSTSGQPYPTSDQEGDPGSKQPRKKRGRYRQYNSEILEEAISVVMSGKMSVSKAQSIYGIPHSTLEYKVKERLGTLKNPPKKKMKLMRSEGPDVSVKIELDPQGEAAQSANESKNE	0.991
MYCBP (protein, UniProt Q99417 2-103, looked up) c-Myc-binding protein: AHYKAADSKREQFRRYLEKSGVLDTLTKVLVALYEEPEKPNSALDFLKHHLGAATPENPEIELLRLELAEMKEKYEAIVEENKKLKAKLAQYEPPQEEKRAE	-0.1227
MUSCLIN (protein, UniProt P61366 28-133, looked up) Osteocrin: VDVTTTEAFDSGVIDVQSTPTVREEKSATDLTAKLLLLDELVSLENDVIETKKKRSFSGFGSPLDRLSAGSVDHKGKQRKVVDHPKRRFGIPMDRIGRNRLSNSRG	0.265
MYSM1 (protein, UniProt Q5VVJ2 1-828, looked up) Deubiquitinase MYSM1: MAAEEADVDIEGDVVAAAGAQPGSGENTASVLQKDHYLDSSWRTENGLIPWTLDNTISEENRAVIEKMLLEEEYYLSKKSQPEKVWLDQKEDDKKYMKSLQKTAKIMVHSPTKPASYSVKWTIEEKELFEQGLAKFGRRWTKISKLIGSRTVLQVKSYARQYFKNKVKCGLDKETPNQKTGHNLQVKNEDKGTKAWTPSCLRGRADPNLNAVKIEKLSDDEEVDITDEVDELSSQTPQKNSSSDLLLDFPNSKMHETNQGEFITSDSQEALFSKSSRGCLQNEKQDETLSSSEITLWTEKQSNGDKKSIELNDQKFNELIKNCNKHDGRGIIVDARQLPSPEPCEIQKNLNDNEMLFHSCQMVEESHEEEELKPPEQEIEIDRNIIQEEEKQAIPEFFEGRQAKTPERYLKIRNYILDQWEICKPKYLNKTSVRPGLKNCGDVNCIGRIHTYLELIGAINFGCEQAVYNRPQTVDKVRIRDRKDAVEAYQLAQRLQSMRTRRRRVRDPWGNWCDAKDLEGQTFEHLSAEELAKRREEEKGRPVKSLKVPRPTKSSFDPFQLIPCNFFSEEKQEPFQVKVASEALLIMDLHAHVSMAEVIGLLGGRYSEVDKVVEVCAAEPCNSLSTGLQCEMDPVSQTQASETLAVRGFSVIGWYHSHPAFDPNPSLRDIDTQAKYQSYFSRGGAKFIGMIVSPYNRNNPLPYSQITCLVISEEISPDGSYRLPYKFEVQQMLEEPQWGLVFEKTRWIIEKYRLSHSSVPMDKIFRRDSDLTCLQKLLECMRKTLSKVTNCFMAEEFLTEIENLFLSNYKSNQENGVTEENCTKELLM	-0.7244
MYNN (protein, UniProt Q9NPC7 1-610, looked up) Myoneurin: MQYSHHCEHLLERLNKQREAGFLCDCTIVIGEFQFKAHRNVLASFSEYFGAIYRSTSENNVFLDQSQVKADGFQKLLEFIYTGTLNLDSWNVKEIHQAADYLKVEEVVTKCKIKMEDFAFIANPSSTEISSITGNIELNQQTCLLTLRDYNNREKSEVSTDLIQANPKQGALAKKSSQTKKKKKAFNSPKTGQNKTVQYPSDILENASVELFLDANKLPTPVVEQVAQINDNSELELTSVVENTFPAQDIVHTVTVKRKRGKSQPNCALKEHSMSNIASVKSPYEAENSGEELDQRYSKAKPMCNTCGKVFSEASSLRRHMRIHKGVKPYVCHLCGKAFTQCNQLKTHVRTHTGEKPYKCELCDKGFAQKCQLVFHSRMHHGEEKPYKCDVCNLQFATSSNLKIHARKHSGEKPYVCDRCGQRFAQASTLTYHVRRHTGEKPYVCDTCGKAFAVSSSLITHSRKHTGEKPYICGICGKSFISSGELNKHFRSHTGERPFICELCGNSYTDIKNLKKHKTKVHSGADKTLDSSAEDHTLSEQDSIQKSPLSETMDVKPSDMTLPLALPLGTEDHHMLLPVTDTQSPTSDTLLRSTVNGYSEPQLIFLQQLY	-0.5885
MXD4 (protein, UniProt Q14582 1-209, looked up) Max dimerization protein 4: MELNSLLILLEAAEYLERRDREAEHGYASVLPFDGDFAREKTKAAGLVRKAPNNRSSHNELEKHRRAKLRLYLEQLKQLVPLGPDSTRHTTLSLLKRAKVHIKKLEEQDRRALSIKEQLQQEHRFLKRRLEQLSVQSVERVRTDSTGSAVSTDDSEQEVDIEGMEFGPGELDSVGSSSDADDHYSLQSGTGGDSGFGPHCRRLGRPALS	-0.9909
ATF1 (protein, UniProt P18846 1-271, looked up) Cyclic AMP-dependent …: MEDSHKSTTSETAPQPGSAVQGAHISHIAQQVSSLSESEESQDSSDSIGSSQKAHGILARRPSYRKILKDLSSEDTRGRKGDGENSGVSAAVTSMSVPTPIYQTSSGQYIAIAPNGALQLASPGTDGVQGLQTLTMTNSGSTQQGTTILQYAQTSDGQQILVPSNQVVVQTASGDMQTYQIRTTPSATSLPQTVVMTSPVTLTSQTTKTDDPQLKREIRLMKNREAARECRRKKKEYVKCLENRVAVLENQNKTLIEELKTLKDLYSNKSV	-0.9514
MYOG (protein, UniProt P15173 1-224, looked up) Myogenin: MELYETSPYFYQEPRFYDGENYLPVHLQGFEPPGYERTELTLSPEAPGPLEDKGLGTPEHCPGQCLPWACKVCKRKSVSVDRRRAATLREKRRLKKVNEAFEALKRSTLLNPNQRLPKVEILRSAIQYIERLQALLSSLNQEERDLRYRGGGGPQPGVPSECSSHSASCSPEWGSALEFSANPGDHLLTADPTDAHNLHSLTSIVDSITVEDVSVAFPDETMPN	0.6311
MTDH (protein, UniProt Q86UE4 1-582, looked up) Protein LYRIC: MAARSWQDELAQQAEEGSARLREMLSVGLGFLRTELGLDLGLEPKRYPGWVILVGTGALGLLLLFLLGYGWAAACAGARKKRRSPPRKREEAAAVPAAAPDDLALLKNLRSEEQKKKNRKKLSEKPKPNGRTVEVAEGEAVRTPQSVTAKQPPEIDKKNEKSKKNKKKSKSDAKAVQNSSRHDGKEVDEGAWETKISHREKRQQRKRDKVLTDSGSLDSTIPGIENTITVTTEQLTTASFPVGSKKNKGDSHLNVQVSNFKSGKGDSTLQVSSGLNENLTVNGGGWNEKSVKLSSQISAGEEKWNSVSPASAGKRKTEPSAWSQDTGDANTNGKDWGRSWSDRSIFSGIGSTAEPVSQSTTSDYQWDVSRNQPYIDDEWSGLNGLSSADPNSDWNAPAEEWGNWVDEERASLLKSQEPIPDDQKVSDDDKEKGEGALPTGKSKKKKKKKKKQGEDNSTAQDTEELEKEIREDLPVNTSKTRPKQEKAFSLKTISTSDPAEVLVKNSQPIKTLPPATSTEPSVILSKSDSDKSSSQVPPILQETDKSKSNTKQNSVPPSQTKSETSWESPKQIKKKKKARRET	1.2714
MSGN1 (protein, UniProt A6NI15 1-193, looked up) Mesogenin-1: MDNLRETFLSLEDGLGSSDSPGLLSSWDWKDRAGPFELNQASPSQSLSPAPSLESYSSSPCPAVAGLPCEHGGASSGGSEGCSVGGASGLVEVDYNMLAFQPTHLQGGGGPKAQKGTKVRMSVQRRRKASEREKLRMRTLADALHTLRNYLPPVYSQRGQPLTKIQTLKYTIKYIGELTDLLNRGREPRAQSA	0.1411
MNAT1 (protein, UniProt P51948 1-309, looked up) CDK-activating kinase …: MDDQGCPRCKTTKYRNPSLKLMVNVCGHTLCESCVDLLFVRGAGNCPECGTPLRKSNFRVQLFEDPTVDKEVEIRKKVLKIYNKREEDFPSLREYNDFLEEVEEIVFNLTNNVDLDNTKKKMEIYQKENKDVIQKNKLKLTREQEELEEALEVERQENEQRRLFIQKEEQLQQILKRKNKQAFLDELESSDLPVALLLAQHKDRSTQLEMQLEKPKPVKPVTFSTGIKMGQHISLAPIHKLEEALYEYQPLQIETYGPHVPELEMLGRLGYLNHVRAASPQDLAGGYTSSLACHRALQDAFSGLFWQPS	-0.8808
